Measured values published in patent US20250114433A1 (published 2025).

Key:
[1] = target: T1, KRAS G12V peptide on HLA-A*02:01 (human); assay: multimer staining
T1 peptide: KLVVVGAVGV

[2] = target: T2, KRAS G12V (same sequence in NRAS and HRAS G12V) peptide on HLA-A*11:01 (human); assay: cytokine release
T2 peptide: VVVGAVGVGK

[3] = target: T3, KRAS G12D (same sequence in NRAS and HRAS G12D) peptide on HLA-A*11:01 (human); assay: cytokine release
T3 peptide: VVVGADGVGK

[4] = target: T4, KRAS G12V (same sequence in NRAS and HRAS G12V) peptide on HLA-A*11:01 (human); assay: cytokine release
T4 peptide: VVGAVGVGK

[5] = target: T5, KRAS G12D (same sequence in NRAS and HRAS G12D) peptide on HLA-A*11:01 (human); assay: cytokine release
T5 peptide: VVGADGVGK

Binder | binding result [1] | binding result [2] | binding result [3] | binding result [4] | binding result [5]
A2 KRAS TCR03 (TCR, V domains shown) Valpha: GEDVEQSLFLSVREGDSSVINCTYTDSSSTYLYWYKQEPGAGLQLLTYIFSNMDMKQDQRLTVLLNKKDKHLSLRIADTQTGDSAIYFCAERTDTDKLIFGTGTRLQVFP Vbeta: GAGVSQTPSNKVTEKGKYVELRCDPISGHTALYWYRQSLGQGPEFLIYFQGTGAADDSGLPNDRFFAVRPEGSVSTLKIQRTERGDSAVYLCASSPLAANEQFFGPGTRLTVL | recognises |  |  |  | 
A2 KRAS TCR15 (TCR, V domains shown) Valpha: GEDVEQSLFLSVREGDSSVINCTYTDSSSTYLYWYKQEPGAGLQLLTYIFSNMDMKQDQRLTVLLNKKDKHLSLRIADTQTGDSAIYFCAEMMDTDKLIFGTGTRLQVFP Vbeta: EAGVAQSPRYKIIEKRQSVAFWCNPISGHATLYWYQQILGQGPKLLIQFQNNGVVDDSQLPKDRFSAERLKGVDSTLKIQPAKLEDSAVYLCASSLPSGNEQFFGPGTRLTVL | recognises |  |  |  | 
TCR14 (TCR, V domains shown) Valpha: SQQGEEDPQALSIQEGENATMNCSYKTSINNLQWYRQNSGRGLVHLILIRSNEREKHSGRLRVTLDTSKKSSSLLITASRAADTASYFCATDEGGGADGLTFGKGTHLIIQP Vbeta: DSGVTQTPKHLITATGQRVTLRCSPRSGDLSVYWYQQSLDQGLQFLIQYYNGEERAKGNILERFSAQQFPDLHSELNLSSLELGDSALYFCASTHGRDSTDTQYFGPGTRLTVL |  | no recognition | no recognition | recognises | no recognition
A2 KRAS TCR12 (TCR, V domains shown) Valpha: AQSVTQLDSQVPVFEEAPVELRCNYSSSVSVYLFWYVQYPNQGLQLLLKYLSGSTLVESINGFEAEFNKSQTSFHLRKPSVHISDTAEYFCAVTRDDKIIFGKGTRLHILP Vbeta: DVKVTQSSRYLVKRTGEKVFLECVQDMDHENMFWYRQDPGLGLRLIYFSYDVKMKEKGDIPEGYSVSREKKERFSLILESASTNQTSMYLCASSLQVSGVAGYTFGSGTRLTVV | recognises |  |  |  | 
A2 KRAS TCR09 (TCR, V domains shown) Valpha: GESVGLHLPTLSVQEGDNSIINCAYSNSASDYFIWYKQESGKGPQFIIDIRSNMDKRQGQRVTVLLNKTVKHLSLQIAATQPGDSAVYFCAEIFNDYKLSFGAGTTVTVRA Vbeta: EAQVTQNPRYLITVTGKKLTVTCSQNMNHEYMSWYRQDPGLGLRQIYYSMNVEVTDKGDVPEGYKVSRKEKRNFPLILESPSPNQTSLYFCASSQAGLGNEQFFGPGTRLTVL | recognises |  |  |  | 
A2 KRAS TCR05 (TCR, V domains shown) Valpha: AQSVTQPDIHITVSEGASLELRCNYSYGATPYLFWYVQSPGQGLQLLLKYFSGDTLVQGIKGFEAEFKRSQSSFNLRKPSVHWSDAAEYFCAVGDENTGFQKLVFGTGTRLLVSP Vbeta: DVKVTQSSRYLVKRTGEKVFLECVQDMDHENMFWYRQDPGLGLRLIYFSYDVKMKEKGDIPEGYSVSREKKERFSLILESASTNQTSMYLCASALRGTYEQYFGPGTRLTVT | recognises |  |  |  | 
A2 KRAS TCR18 (TCR, V domains shown) Valpha: GEDVEQSLFLSVREGDSSVINCTYTDSSSTYLYWYKQEPGAGLQLLTYIFSNMDMKQDQRLTVLLNKKDKHLSLRIADTQTGDSAIYFCAVLLDNQGGKLIFGQGTELSVKP Vbeta: DVKVTQSSRYLVKRTGEKVFLECVQDMDHENMFWYRQDPGLGLRLIYFSYDVKMKEKGDIPEGYSVSREKKERFSLILESASTNQTSMYLCASRGLSTDTQYFGPGTRLTVL | recognises |  |  |  | 
A2 KRAS TCR08 (TCR, V domains shown) Valpha: GEDVEQSLFLSVREGDSSVINCTYTDSSSTYLYWYKQEPGAGLQLLTYIFSNMDMKQDQRLTVLLNKKDKHLSLRIADTQTGDSAIYFCAERIDSGNTPLVFGKGTRLSVIA Vbeta: DVKVTQSSRYLVKRTGEKVFLECVQDMDHENMFWYRQDPGLGLRLIYFSYDVKMKEKGDIPEGYSVSREKKERFSLILESASTNQTSMYLCAIEPPTGNEQYFGPGTRLTVT | recognises |  |  |  | 
A11 KRAS TCR_220_12 (TCR, V domains shown) Valpha: AQSVTQLDSHVSVSEGTPVLLRCNYSSSYSPSLFWYVQHPNKGLQLLLKYTSAATLVKGINGFEAEFKKSETSFHLTKPSAHMSDAAEYFCVVSDMVSGYALNFGKGTSLLVTP Vbeta: DIYQTPRYLVIGTGKKITLECSQTMGHDKMYWYQQDPGMELHLIHYSYGVNSTEKGDLSSESTVSRIRTEHFPLTLESARPSHTSQYLCASSESLYNEQFFGPGTRLTVL |  | no recognition | recognises | no recognition | no recognition
A2 KRAS TCR19 (TCR, V domains shown) Valpha: AQSVSQHNHHVILSEAASLELGCNYSYGGTVNLFWYVQYPGQHLQLLLKYFSGDPLVKGIKGFEAEFIKSKFSFNLRKPSVQWSDTAEYFCAVNDPSDYKLSFGAGTTVTVRA Vbeta: DGGITQSPKYLFRKEGQNVTLSCEQNLNHDAMYWYRQDPGQGLRLIYYSQIVNDFQKGDIAEGYSVSREKKESFPLTVTSAQKNPTAFYLCASRSDRNEQFFGPGTRLTVL | recognises |  |  |  | 
A2 KRAS TCR04 (TCR, V domains shown) Valpha: AQKVTQAQTEISVVEKEDVTLDCVYETRDTTYYLFWYKQPPSGELVFLIRRNSFDEQNEISGRYSWNFQKSTSSFNFTITASQVVDSAVYFCALMDSSYKLIFGSGTRLLVRP Vbeta: GAVVSQHPSWVICKSGTSVKIECRSLDFQATTMFWYRQFPKQSLMLMATSNEGSKATYEQGVEKDKFLINHASLTLSTLTVTSAHPEDSSFYICSAFLSGSADTQYFGPGTRLTVL | recognises |  |  |  | 
A11 KRAS TCR_141_1 (TCR, V domains shown) Valpha: AQTVTQSQPEMSVQEAETVTLSCTYDTSESDYYLFWYKQPPSRQMILVIRQEAYKQQNATENRFSVNFQKAAKSFSLKISDSQLGDAAMYFCALKTSYDKVIFGPGTSLSVIP Vbeta: NAGVTQTPKFQVLKTGQSMTLQCAQDMNHEYMSWYRQDPGMGLRLIHYSVGAGITDQGEVPNGYNVSRSTTEDFPLRLLSAAPSQTSVYFCASSLGAGEWKSPLHFGNGTRLTVT |  | no recognition | recognises | no recognition | no recognition
TCR15 (TCR, V domains shown) Valpha: QKEVEQNSGPLSVPEGAIASLNCTYSDRGSQSFFWYRQYSGKSPELIMFIYSNGDKEDGRFTAQLNKASQYVSLLIRDSQPSDSATYLCAVNARGNMLTFGGGTRLMVKP Vbeta: SQTIHQWPATLVQPVGSPLSLECTVEGTSNPNLYWYRQAAGRGLQLLFYSVGIGQISSEVPQNLSASRPQDRQFILSSKKLLLSDSGFYLCAWTLTGFGQPQHFGDGTRLSIL |  | recognises | no recognition | no recognition | no recognition
A2 KRAS TCR11 (TCR, V domains shown) Valpha: DQQVKQNSPSLSVQEGRISILNCDYTNSMFDYFLWYKKYPAEGPTFLISISSIKDKNEDGRFTVFLNKSAKHLSLHIVPSQPGDSAVYFCAAISLTSGTYKYIFGTGTRLKVLA Vbeta: DTEVTQTPKHLVMGMTNKKSLKCEQHMGHRAMYWYKQKAKKPPELMFVYSYEKLSINESVPSRFSPECPNSSLLNLHLHALQPEDSALYLCASSQDLGTVYEQYFGPGTRLTVT | recognises |  |  |  | 
